assay: soluble on expression in E. coli; label from the status in PepcDB or PDB records

Sequence | soluble on expression in E. coli
MGSDKIHHHHHHMVHSTPTTFAGSKSARPRVAIAGFQHETNTFAPFGAPFDDFVRGGGWPAMTTGAAILDVFPPIEIPIGGFISAAKDTYELIPLVWAAAEPTSFVSDDAFERIAGMICDGIARAGPLDAIYLDLHGAMVVESYQDGEGELLRRVREIVGRDIPIMISLDFHANVTEAMVELSDGITIFRTYPHIDLADTGGRAFSLLEQRIRRGRPFIKAFRKTPFLIPLPAQCTDLEPCMSLYAGLQERVKGPVLNVDVALGFPLADIRECGPAVVAYGIDEVAVTAAADMQLSDMLEAEGRFHMSLLDVKEAVEHAARNGRKGSLIVLADVQDNPGCGGTSDTIGLLKGMVEGGLRNGVLGLLWDPETAEAAHTAGLGAELDVRLGGRYGYDSEPYLARVRVEALSDGVFKANGPCLGGVQVDLGRMARLLILNPGSSVQVVVSSVRFQCLDQDLLRAVGVEPRDQSVVAVKSAVHFRADFAPIAEEILTVESPGAHWCRNDILDYKNLRDGVRRMPISLATQPSEVKIAERRH | not soluble
MGSDKIHHHHHHMEQSMRKKNNNQINIVLNHRKKISLPAAENKTVISSETTTKHEMLQRIEEEMGKLVGMDDIKKIIKEIYAWIYVNKKRQEIGLKSEKQVLHMLFKGNPGTGKTTVARMIGKLLFEMNILSKGHLVEAERADLVGEYIGHTAQKTRDLIKKAMGGILFIDEAYSLARGGEKDFGKEAIDTLVKHMEDKQHGFVLILAGYSREMNHFLSLNPGLQSRFPFIIEFADYSVNQLLEIGKRMYEEREYQLSKEAEWKFRDHLHAVKYSSQITSFSNGRYVRNIVEKSIRTQAMRLLQEDAYDKYDLIGISSSDLMLEEETHST | not soluble
MVRTCSNCGSSEIDEDAARGDATCTACGTVLEESIVVTENQFQERAGGSGHTLVGQFVSSERAAANNFNGMGSQESREMTYAKGRKVIDELGSQLRINSHCMNTAFNFYKMCVSRNLTRGRNRSSVVAVCMYITCRLENTAHLLLDFSDVTQINVFDLGRNLNYLSRSLRINLPSTDPCLYIMRFACVLDFGDKQKEVVNLATRLVQRMKRDWMSTGRRPTGICGAALLIAARSLNFNRSINDIVRVVHISEGVIRKRLDEFSQTPSGSLTIDEFSTVDLEHSEDPPAYRESRRKAREDQLRKEAEQAESMKEQLGEMEAHVEAALDKKRKEKFSKSPYARMISENLGKENDKMQTLTETVVESSGLEKGADEMVRNEIINTVFNAAEEDPCTSNSLEKYDKYRPSLESLGIKRTSEPEPEPVPHPIVNADLEEDISDSEIDSYILTESEVAIKTDYWMKANGEAMKEIEEKKRERELNGGVKKKKPRSNRKTDTTSTSVASAVEKVIAEKKLSNKVNYEMLKDLETMATGIKRDIRESTPAPVTPISIKVDSSDVTPDTLSKSEKIARGKNIRSQASESTIQKLRSIFDLTEECSETSKNSSPKVNLKVESASPSTSEVSSIEHKPFVPPARSRYAKVKPIIGAKKLAALNEVKNVHTVPEPSAPAEPIVSEAPLQVKTSSSDPIVTSTEVPSVAEPPAPIQNVEEAKPIVPVKSRYAKAKPNLKPIKQKTAVDVVTVGEGESSEPSAKRTKAEHLES | not soluble
MSLLSVKQSSINEDHNNWDFFGHFVLRSTGFPYEWMKELKMQQTFDLIFQNAKWEQVESKFNQELAIKREQLKAYFDSEDFRQAVFISNPDMYQHIDRYMKHFQSHSRPSKVKRIEKKLFTYLQRFCGKNESASFFGPLNYGQVEPNIDEYWDGSFIETKDLQKREAFLSYWAVKALAKAVAKENELAPYVPLQIPSWIVVRKEYVVLSSGKRINLPAWMMEIMHYIQETSSCLWELQNHFNHIEAGQLKASLEKLISKGLIHREWIIPSTVVHPLHRLLEQLRELPDSPAKNKWCQALDELASEVTKLANLPIVEKRRSFAHLEETFTKLTGEPSRRGKASLYADRFIYYEDAQGHIQEFRFGKPFIEDLQTKLAGSLNMSAAYGEEIWAYYQELGRNVYEDMQVEARNDEKRQLANSGIPFSSFINKLRQTYPDVPQLPKSSFSNKIEAIIREKGTEQRVVKLTSDQLNVFPSNRSFYSLPDLFLQAENIEALRNGDVQIILAKLHHHLLMHNWMTYFYQEKERLERDLVQLVQKLDHEDGTVLSGLEIMRRNKAYYDYPTTVIEYAEKPDSSKESIKLTDLIVVRNDDGHLELQEKNTSRPIELYVPLADQVHYLPFAMFSKPMLLHVPISSGKHTPRIVIDDVVYQRERWFFYTKQLVDLFHQLQGPLLLKKVEEWRQAEGIPEVVYIKGSDVRKPYWVDFKNYFSLELMQQILLENNEITIEEMLPDPHHLWLKSRKGSHSCELRMSVYKLGIKEVSEHAEGHHHHHH | soluble
MKRAPFLCKQSPDRTLEVVILAGSLAWETSRVWRKDPDREDDVPPMVLGPNELADLSNLTIIRPDTLYVRVLRTGDISEEDLLKIAVKLAHAGVQMARLMSPDGELLENWTGQLERLRQERPSDILPDHFRLDEEALWFDKLTERRDGESDVQPQRICSPLRVTAITCDSHDGSYGRLLEWHTTTGQLRRWAMPMAMLSGNGEELRRILLENGLTNISTRPALRSLLCEYISRSLPGRRVTCVEKTGWHNGVYVLPDEVIGPDGDNVILQGSHYLTGGFAQAGTLAEWQEQVAALCAGNSRLVFAVCCALAAPLLRLTGTGGGGFHLRGESTDGKTTVMKVAASVCGGTDYWHSWRATGNALEGIASRHNDALLPLDELREVDPREAGMIAYMLANGQGKGRARTDGEVRNRRHWTLLLEHHHHHH | not soluble
MGSDKIHHHHHHMEIIAHRGFRGRYPEMTAQAYEKACELPIHGVECDVRLTADGHLACVHDRTLLRIASCGLVVSTATMDQLREHGIITLDELIDILPEDKHLYIETKHPMRYGVMAEEQVALRLRYRGLLHDPRFHLISFSHAAIRRMGRIAPGFDTIYLRREWELRYNPKDFAISRPSAWGLSLAHAKIRPQLIGRDGKKTYMWTVNDADDVRWARDNGVQLLATDYPDVALEALAQ | not soluble
MELLFLGTGAGIPAKARNVTSVALKLLEERRSVWLFDCGEATQHQMLHTTIKPRKIEKIFITHMAGDHVYGLPGLLGSRSFQGGEDELTVYGPKGIKAFIETSLAVTKTHLTYPLAIQEIEEGIVFEDDQFIVTAVSVIHGVEAFGYRVQEKDVPGSLKADVLKEMNIPPGPVYQKIKKGETVTLEDGRIINGNDFLEPPKKGRSVVFSGDTRVSDKLKELARDCDVMVHEATFAKEDRKLAYDYYHSTTEQAAVTAKEARAKQLILTHISARYQGDASLELQKEAVDVFPNSVAAYDFLEVNVPRGKLAAALEHHHHHH | soluble
MSLKDPLSEALVRLNQKVDSELIPEIKRFPLIGISTDISPKRTAVNTAYVQSVILSGGIPYMIPVTDNVEILRQIVSRLDGIVFTGGEDIQPMYYGDLPYEKLEEVSPARDTFDLMVLKMAADRNIPILGICRGLQLMNVAFGGTLYQDLPTQHPSSVNHRQKESGTTTTHPISIIKGSKLADITGQEVLQVNTFHHQAIQKLAPGFKITAWAPDSIAEAIEAYPIRQMIGVQFHPEIFTAAGDTTMHKLFKFLVNKADEGHHHHHH | not soluble
GMGLALCGAAAQAQEKPNFLIIQCDHLTQRVVGAYGQTQGCTLPIDEVASRGVIFSNAYVGCPLSQPSRAALWSGMMPHQTNVRSNSSEPVNTRLPENVPTLGSLFSESGYEAVHFGKTHDMGSLRGFKHKEPVAKPFTDPEFPVNNDSFLDVGTCEDAVAYLSNPPKEPFICIADFQNPHNICGFIGENAGVHTDRPISGPLPELPDNFDVEDWSNIPTPVQYICCSHRRMTQAAHWNEENYRHYIAAFQHYTKMVSKQVDSVLKALYSTPAGRNTIVVIMADHGDGMASHRMVTKHISFYDEMTNVPFIFAGPGIKQQKKPVDHLLTQPTLDLLPTLCDLAGIAVPAEKAGISLAPTLRGEKQKKSHPYVVSEWHSEYEYVTTPGRMVRGPRYKYTHYLEGNGEELYDMKKDPGERKNLAKDPKYSKILAEHRALLDDYITRSKDDYRSLKVDADPRCRNHTPGYPSHEGPGAREILKRK | soluble
MGSDKIHHHHHHMNYKLISIDLAKTVFQVAAFNPDNTIAFNRKINRPALLDMLRQCEPTLVVMEACYSANYWGRTIEKLGHTVKLIPARMVKAMLVGNKNDANDAVAIGETAGRPKVSLLRPKTVEQQDIQSLLRIRERLVENRTANCNQLRGFLAEYGLIVAKTRRQLMLAIPLILEDADNELSTVARGFIQRLYEFQLYLNEQIDQVAQDILALAQAMPQYPLLLTIPGVGPIVASTLLASINEVNDFKNGRQLAAWLGLTPSQYSSGTTNRLGKITKRGNQTLRRLLIHGARTVVNWCDKKDDSLSLWLQRLKQRQHVCKVTVALANKMARMVFVVMSRGQAFDMNKACKLAT | not soluble
MDIEIENHPLEPFLPANARLLMLGSFPPQKKRWSMDFYYPNLNNDMWRIVGLLFFNNKDYFLNETRKAFCRERIISFLNDKGIALFDTASAIRRLQDNASDKFLEVVQPTDISRLLGQLPECKAIVTTGQKATDTLRAQFEVEEPKVGDFSEFVFDGRPVRLYRMPSSSRAYPLALDKKAAAYRTMYQDLQMLNIELEHHHHHH | soluble
MRRVDQPRPPGTPFGLREQTTSNADAPARTAPPAHPAPERPTGMLGGLTRYVPGDRSGRPPAMPAAAETSRRPTTSARPLPYGGSGSAARMNEAAGHPLRMPQLPQLSDIERARFHSVTTDSQHLRPVRPRMPPPVGASPLRRSTALRPYHDVLSQWQRHYNADRNRWHSAWRQANSNNPQIETRTGRALKATADLLEDATQPGRVALELRSVPLPQFPDQAFRLSHLQHMTIDAAGLMELPDTMQQFAGLETLTLARNPLRALPASIASLNRLRELSIRACPELTELPEPLASTDASGEHQGLVNLQSLRLEWTGIRSLPASIANLQNLKSLKIRNSPLSALGPAIHHLPKLEELDLRGCTALRNYPPIFGGRAPLKRLILKDCSNLLTLPLDIHRLTQLEKLDLRGCVNLSRLPSLIAQLPANCIILVPPHLQAQLDQHRPVARPAEPGRTGPTTPALSPSAAGDRAGPSSSATASELLLTAALERIEDTAQAMLSTVIDEERNPFLEGAPSYLPGKRPTDVTTFGQVPALRDMLAESRDLEFLQRVSDMAGPSPRIEDPSEEGLARHYTNVSNWKAQKSAHLGIVDHLGQFVYHEGSPLDVATLAKAVQMWKTRELIVHAHPQDRARFPELAVHIPEQVSDDSDSEQQTSPEPSGHQ | soluble
MSLKGTYVLLLKLEESVALRYGKKASHLEPGYYAYVGSAMGGFFKRIPRYFLGSRKRHWHIDYLLDHAQIAGLIMFSGKRIEEEISNVLSYHFEGIEDFGASDLRVKTNLYHVDPDKLFSLLGGFRENRDIRRAQKHRGKQNQSGEGHHHHHH | soluble
MTQVIIDGDACPVTNSIIELTKGTGIFVTVVRSFSHFSTVIQPEHVNIIYVDDGPDAVDYRIVKLVHSDDLVVTQDYGLASLLLNKAKIVMHHKGFIYNQENINTLLEQRHASAQFRKSGGRTKGPAAFTEEDVSKFESIFSNLIHKYFLETEDLEHHHHHH | soluble
MQMNTQREQLIHIWLTSVLNSDEFKIQFLAGDASFRRYARVEYKNNTYMLMDAPPEKEDCVPFVHIDEFFDRHGVRVPHILAKDLVQGFLLLEDFGDVLLSTLLNAQTVNHYYLQAFAQLIHLQSIDGQDQFPAYTFEKLMAEMHLLTEWMLPSLDIQPSSAEQDIIQQTFELLANTALNQPQVIVHRDFHSRNLMKIQGEEELGVIDFQDAVIGADTYDLISITRDAYVQWGEDQVITWFEMFYDLLPDTSKHHRDFEQFKRDADFMAIQRHIKILGIFVRLFERDGKSSYLKDLPRVMWYLLQESRPYAELKPFVEFIQYQVMPKFEQKYGGYEVVKK | not soluble
MSLGGSIKSPQSLTIDIIKRDYLNFKNKKILSFKDIKPKYDSQSDYHGNAIYYFMFYNKLKEFENIQNEKFKIKKEILKSYIIIIDEINRGNVSKIFGELITLIEPSKRIGEKEELKVTLPYSGEKFGVPKNVYIIGTMNTADRSITSLDTALRRRFEFVEMMPDVSKLSMDCEGINLQELLKAINTRIEYLLDREKTIGHAFFVSVENLEDLKKVFQNKIIPLLQEYFYNDYALINAVLNDNDMIFEDKKDDKYLQKIKNLDSVNSERSIYNIASFDDKIWDKIEIYQAIYNDEIANKLKNEGHHHHHH | not soluble

Reference: the DeepSol protein solubility set
